{"source": "the DeepSol protein solubility set", "data": [{"test": "soluble on expression in E. coli; label from the status in PepcDB or PDB records", "values": [{"sequence": "MSLHLIPRPKSVINHEGEFFIERDTEIILSSELSFEDLNLAIMIQKEIEKVLDFKLNINKLFMDKKYSNSIILREFKFENEEEYKIEIKENQVIIEGFGAGLFYGCQSFRQLVREFGACIPNLTIEDSPYFKYRGFYHDVTRGMVPTLDTLKRLVDKAAFYKINQLQLYIEHTFAFKGMSEVWMDKDPLTAEEILILDKYCKERHVELVPSLSTFGHLYEALRSKSFRELCELEIGDEEYSFVDRMAHHTLDVTNPKSLDFVESMLLEFIPLFSSDKFNICCDETFDLGKGKSREKAEKLGVGKIYTEFLNKVYNIVKRFNKNVMFWGDIIVGYPELLSDIPEDLTCLTWNYHPQANDVATKIIAENNKVQYVCPGVGGWNMMMNLIEGSFSNIRRMVNHGMKYGAIGVLNTNWGDYGNINLLANSMPSMIYGAGISWNPKEEEFNEIFKSISLMEFGDESMKVVSLMDKLSKNQVAGWGELVRWKEKFNEREETKEEIKNIDTLKVFEGYKVASEVRREFIKLLKNTEDKEAIQSFIVSSKGWELIDKFFMVLLEREFNKKSLLDIDKKDLAKDLELWFYDYTSIWRKYNKESELNRIREVIVYMCSYLRGEGHHHHHH", "soluble on expression in E. coli": "soluble"}, {"sequence": "MSTKADMAIAFHDKGYNCAQAVACSFCQEFGVAEEEMFRIAEGFGLGMGMMEVCGALSGMMMIIGLENSVGEPEKGRLTKGDTYRKVKEYVKKFQEQNGSYLCRELKGVETGKVLRSCPDCIRDAVALTEEYLAAQKQN", "soluble on expression in E. coli": "not soluble"}, {"sequence": "GPGSMPLTAAGMRTLMRQMQEVQEHPVDGVQVRPSDSMNEYHFDVDGPEGTPFAAGRFHVVLIFDEQYPEVPPKGFFRTKIFHPNISERGDICVNTLKRDWSPMLGLRHILVVIRCLLIEPNPESALNEEAGRLILEEYAAYERKAAMYTAINAARPNGVPRFTLPEVKAEKASGSVTACASAGAAADSGASATAAAAAASASSMANGGAPSTATRGLTLSEANCHPGSATAAEKAEKSKKKALRRI", "soluble on expression in E. coli": "soluble"}, {"sequence": "MGSDKIHHHHHHAGCAMIPPEPVVTGPLTAPPPPPPQPSARPNGSIYQPSAYGNYPLFEDRRPRNVGDIVTIVLEEKTNAAKGVATNTSRDGSATLGVAAAPRFMDGIINDKLDTDISGGNTANGTGKSSANNTFTGTITTTVIGVLPNGNLQIAGEKQIAINRGSEYVRFSGVVDPRSITGSNTVSSTRVADARIEYRSKGVMDEVQTMGWLQRFFLIASPF", "soluble on expression in E. coli": "not soluble"}, {"sequence": "MMKYTAVLDKPVTGNETTGSLPEPLLREALGAALRAFRADKGITLRELAETSRVSPGYLSELERGRKEVSSELLASVCHALGTSVSDVLIEAAGTMAMRSAEADLVRVS", "soluble on expression in E. coli": "not soluble"}, {"sequence": "SVGREKELSIHFVPGSCRLVEEEVNIPNRRVLVTGATGLLGRAVHKEFQQNNWHAVGCGFRRARPKFEQVNLLDSNAVHHIIHDFQPHVIVHCAAERRPDVVENQPDAASQLNVDASGNLAKEAAAVGAFLIYISSDYVFDGTNPPYREEDIPAPLNLYGKTKLDGEKAVLENNLGAAVLRIPILYGEVEKLEESAVTVMFDKVQFSNKSANMDHWQQRFPTHVKDVATVCRQLAEKRMLDPSIKGTFHWSGNEQMTKYEMACAIADAFNLPSSHLRPITDSPVLGAQRPRNAQLDCSKLEILGIGQRTPFRIGIKESLWPFLIDKRWRQTVFH", "soluble on expression in E. coli": "soluble"}, {"sequence": "QAGRFIGQEISGRLSSRSMLAVQIDDLLKLAARFVGEERARQSFIRFAYRQGKGFNPNQNADGEWIAHTERLLAGVLGASSTRAVVKAAIEGREMQLEDVVRIADEASEVLQFNRALLQGAIENITQGISVVDQSL", "soluble on expression in E. coli": "not soluble"}, {"sequence": "MALDLTAYFDRINYRGATDPTLDVLQDLVTVHSRTIPFENLDPLLGVPVDDLSPQALADKLVLRRRGGYCFEHNGLMGYVLAELGYRVRRFAARVVWKLAPDAPLPPQTHTLLGVTFPGSGGCYLVDVGFGGQTPTSPLRLETGAVQPTTHEPYRLEDRVDGFVLQAMVRDTWQTLYEFTTQTRPQIDLKVASWYASTHPASKFVTGLTAAVITDDARWNLSGRDLAVHRAGGTEKIRLADAAAVVDTLSERFGINVADIGERGALETRIDELLARQPGADAP", "soluble on expression in E. coli": "not soluble"}, {"sequence": "MKFEYEYMETPEDLLMSLSAGFAMAMRNIATVYSYKGYLSYYTPAMSDGEELTMFVTLTKGELAPGLIDFDSENKRIEHVKKATNPEAYHFLVIRPQISTVLDKAIYDFEKSRNQP", "soluble on expression in E. coli": "not soluble"}]}]}
